In paper PMC5389796:

Experiments:
[1] = biological target: TALK-1 T3 A277E (rs1535500)-FLAG (human) (UniProt Q96T55)
[2] = biological target: TALK-1 T3-FLAG (human) (UniProt Q96T55)
[3] = biological target: TALK-1 T3-FLAG (human) (UniProt Q96T55); remark: listed apart in the source

- whole-cell K2P currents of T-REx cells with induced TALK-1 T3 A277E, increase with iOPN compared to the PKM2 control, at -60, -30, 0, 30 and 60 mV [1]: 18.7 pA/pF
- whole-cell K2P currents of T-REx cells with induced TALK-1 T3, increase with iOPN compared to the PKM2 control, at -60, -30, 0, 30 and 60 mV [2]: 19.6 pA/pF
- change of resting membrane potential (ΔVm), TALK-1 T3 with iOPN against TALK-1 T3 with PKM2, perforated patch [3]: -7.7 mV
- resting membrane potential (Vm) of T-REx cells expressing TALK-1 T3 with iOPN, perforated patch [3]: -80.2 mV
Substance: iOPN-V5 (from UniProt P10451-1 17-314) (natural protein)
